Reference: article PMC3101314

Assays:
[1] = target: mature HIV-1 protease bearing drug-resistance mutation L76V (PR_(L76V)) (HIV-1); assay: ITC
[2] = target: mature HIV-1 protease bearing drug-resistance mutation L76V (PR_(L76V)) (HIV-1); assay: enzyme activity against protease concentration

| Substance | Kd [1] | Kd [2] |
| --- | --- | --- |
| RPB inhibitor (H-Arg-Val-Leu-(r)-Phe-Glu-Ala-Nle-NH2), substrate-analog inhibitor with a reduced peptide bond | 61 nM | – |
| mature HIV-1 protease bearing drug-resistance mutation L76V (PR_(L76V)) (enzyme) | – | 71 nM |
